{"source": "paper PMC12168090", "target": "NSP5, rotavirus RV Strain A RF, N-terminally Strep-tagged, full length (group A rotavirus, strain RF (RV Strain A RF))", "experiment": "native MS; full-length NSP5 in 200 mM ammonium acetate pH 6.9, 20 μM monomer; Q-Exactive UHMR, nESI"}
{"substance": "NSP5, rotavirus RV Strain A RF, N-terminally Strep-tagged, full length (natural protein)", "values": [{"measurement": "stoichiometry N", "value": 10}]}
